According to patent US7358333 (GENODYSSE S A, dated 2008):

Target: interferon receptor on MCF-7 breast carcinoma cells
Test: cell-based or functional assay

B1: natural wild-type IFNα-5 protein (ligand)
chain: CDLPQTHSLSNRRTLMIMAQMGRISPFSCLKDRHDFGFPQEEFDGNQFQKAQAISVLHEMIQQTFNLFSTKDSSATWDETLLDKFYTELYQQLNDLEACMMQEVGVEDTPLMNVDSILTVRKYFQRITLYLTEKKYSPCAWEVVRAEIMRSFSLSANLQERLRRKE
EC50, stimulation of Luciferase activity (pISRE-Luc reporter gene in MCF-7 cells): 5.67 pM

B2: C122S mutated IFNα-5 (ligand)
chain: CDLPQTHSLSNRRTLMIMAQMGRISPFSCLKDRHDFGFPQEEFDGNQFQKAQAISVLHEMIQQTFNLFSTKDSSATWDETLLDKFYTELYQQLNDLEASMMQEVGVEDTPLMNVDSILTVRKYFQRITLYLTEKKYSPCAWEVVRAEIMRSFSLSANLQERLRRKE
EC50, stimulation of Luciferase activity (pISRE-Luc reporter gene in MCF-7 cells): 93.3 pM | ratio of the EC50 value for the mutated protein over the EC50 value for the wild-type protein (pISRE-Luc reporter gene in MCF-7 cells): 18.3 fold
